Test results taken from the RNAGym collection of RNA variant scans (doi:10.1093/molbev/msab373).

B1: Azoarcus group I ribozyme (parent)
chain: GUGCCUUGCGCCGGGAAACCACGCAAGGGAUGGUGUCAAAUUCGGCGAAACCUAAGCGCCCGCCCGGGCGUAUGGCAACGCCGAGCCAAGCUUCGGCGCCUGCGCCGAUGAAGGUGUAGAGACUAGACGGCACCCACCUAAGGCAAACGCUAUGGUGAAGGCAUAGUCCAGGGAGUGGCGAAAGUCACACAAACCGG

Variants of: B1
Experiment: reverse-splicing fitness (ratio to wild type); higher = more active; in vitro selection; Mg2+ level not given
Summary of the method: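 An in vitro group I ribozyme library with randomized positions was T7-transcribed and gel-purified. In triplicate, 10 pmol RNA in EPPS pH 7.5 was reacted with 50 pmoles of a 30-nt RNA substrate for 1 h at 37 °C across several added MgCl2 levels (1–48 mM), then stopped with EDTA. Products were reverse transcribed from a substrate-complementary primer, PCR-amplified and sequenced (HiSeq 4000). Fitness is a variant's read proportion after selection over that before, normalised to wild type.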

| Variant | reverse-splicing fitness |
| --- | --- |
| C82U A111G A120G A145U C150A C169A U176G | 0.00458 |
| C82U A111G A120G A145U C150A C169A U176C | 0.00962 |
| C82U A111G A120G C150U U176C | 0.0156 |
| C82U A111G A120G C150U U176G | 0.00506 |
| C82U A111G A120G C150U U176A | 0.00985 |
| C82U A111G A120U A145C C150A C169G U176A | 0.00205 |
| C82U A111G A120U A145C C150A C169G U176G | 0.0017 |
| C82U A111G A120U A145C C150A C169G U176C | 0.00206 |
| C82U A111G A120U A145U C169G U176A | 0.00205 |
| C82U A111G A120U A145U C169G U176C | 0.00255 |
| C82U A111G A120U A145U C169G U176G | 0.00135 |
| C82U A111G A120G C150G U176A | 0.00527 |
| C82U A111G A120G C150G U176G | 0.0029 |
| C82U A111G A120G C150G U176C | 0.00816 |
| C82U A111G A120U A145G C169A U176A | 0.00258 |
| C82U A111G A120U A145G C169A U176C | 0.00292 |
| C82U A111G A120U A145G C169A U176G | 0.00159 |
| C82U A111G A120U A145C C150U U176G | 0.00212 |
| C82U A111G A120U A145C C150U U176A | 0.00377 |
| C82U A111G A120U A145C C150U U176C | 0.00518 |
| C82U A111G A120G C169A U176A | 0.0167 |

| Variant | reverse-splicing fitness |
| --- | --- |
| C82U A111G A120G C169A U176C | 0.023 |
| C82U A111G A120G C169A U176G | 0.00398 |
| C82U A111G A120U A145G C169G U176A | 0.00278 |
| C82U A111G A120U A145G C169G U176C | 0.00294 |
| C82U A111G A120U A145G C169G U176G | 0.00169 |
| C82U A111G A120U A145C C150G C169U U176G | 0.00181 |
| C82U A111G A120U A145C C150G C169U U176C | 0.00213 |
| C82U A111G A120U A145C C150G C169U U176A | 0.00227 |
| C82U A111G A120G A145U C150G C169G U176G | 0.00427 |
| C82U A111G A120G A145U C150G C169G U176C | 0.00487 |
| C82U A111G A120G A145U C150G C169G U176A | 0.00667 |
| C82U A111G A120G A145G C169A U176A | 0.0215 |
| C82U A111G A120G A145G C169A U176C | 0.0277 |
| C82U A111G A120G A145G C169A U176G | 0.00377 |
| C82U A111G A120G A145U C150G C169U U176C | 0.0117 |
| C82U A111G A120G A145U C150G C169U U176G | 0.0048 |
| C82U A111G A120G A145U C150G C169U U176A | 0.0129 |
| C82U A111G A120G A145U C150A C169G U176C | 0.0137 |
| C82U A111G A120G A145U C150A C169G U176G | 0.00398 |
| C82U A111G A120G A145U C150A C169G U176A | 0.0124 |
| C82U A111G A120G A145U C150U C169U U176C | 0.0131 |

| Variant | reverse-splicing fitness |
| --- | --- |
| C82U A111G A120G A145U C150U C169U U176A | 0.02 |
| C82U A111G A120G A145U C150U C169U U176G | 0.00432 |
| C82U A111G A120U A145G C150U C169G | 0.00615 |
| C82U A111G A120U A145G C150U C169A | 0.0056 |
| C82U A111G A120U A145G C150U C169U | 0.00469 |
| C82U A111G A120U A145G C150U C169A U176C | 0.00369 |
| C82U A111G A120U A145G C150U C169A U176A | 0.00487 |
| C82U A111G A120U A145G C150U C169A U176G | 0.00217 |
| C82U A111G A120G C150G C169G U176C | 0.00458 |
| C82U A111G A120G C150G C169G U176A | 0.00604 |
| C82U A111G A120G C150G C169G U176G | 0.00428 |
| C82U A111G A120U A145U C150A C169G U176C | 0.00253 |
| C82U A111G A120U A145U C150A C169G U176G | 0.00148 |
| C82U A111G A120U A145U C150A C169G U176A | 0.00245 |
| C82U A111G A120U A145G C150A C169U U176A | 0.00427 |
| C82U A111G A120U A145G C150A C169U U176C | 0.00341 |
| C82U A111G A120U A145G C150A C169U U176G | 0.00215 |
| C82U A111G A120U A145U C169A U176A | 0.00208 |
| C82U A111G A120U A145U C169A U176G | 0.00175 |
| C82U A111G A120U A145U C169A U176C | 0.0022 |
| C82U A111G A120G C150G C169A U176C | 0.0101 |

| Variant | reverse-splicing fitness |
| --- | --- |
| C82U A111G A120G C150G C169A U176G | 0.00628 |
| C82U A111G A120G C150G C169A U176A | 0.00933 |
| C82U A111G A120G C150A U176G | 0.00658 |
| C82U A111G A120G C150A U176C | 0.016 |
| C82U A111G A120G C150A U176A | 0.00996 |
| C82U A111G A120U A145U C150U C169U | 0.00372 |
| C82U A111G A120U A145U C150U C169A | 0.00252 |
| C82U A111G A120U A145U C150U C169G | 0.00305 |
| C82U A111G A120G C150G C169G | 0.00749 |
| C82U A111G A120G C150G C169A | 0.00895 |
| C82U A111G A120G C150G C169U | 0.00822 |
| C82U A111G A120U A145G C169U U176A | 0.00337 |
| C82U A111G A120U A145G C169U U176G | 0.00171 |
| C82U A111G A120U A145G C169U U176C | 0.00362 |
| C82U A111G A120U A145C C150U C169U U176C | 0.00222 |
| C82U A111G A120U A145C C150U C169U U176A | 0.00264 |
| C82U A111G A120U A145C C150U C169U U176G | 0.00188 |
| C82U A111G A120G A145G C169G U176C | 0.0289 |
| C82U A111G A120G A145G C169G U176G | 0.00424 |
| C82U A111G A120G A145G C169G U176A | 0.0211 |
